Sequences and labels used below:
B1: HAPC-14-1 (antibody, V domains shown)
VH: EVQLVESGGGLVQPGGSLRLSCAASGFTFSFYYLNWVRQAPGKGLEWVGDIRLKSNNYEKHYAESVKGRFTISRDDSKSITYLQMNSLRAEDTAVYYCAREGDYFDYWGQGTTVTVSS
VL: DIQLTQSPSSLSASVGDRVTITCRASESVDSFGATFMHWYQQKPGKAPKLLIYLASWLGSGVPSRFSGSGSGTDFTLTISSLQPEDFATYYCQQNNEDPYTFGQGTKLEIK
notes: Whole IgG, backbone hIgG1; also called HPAC14-1
B2: HAPC-14-2 (antibody, V domains shown)
VH: B1 VH with S55K
VL: B1 VL with G59E, Q93V
notes: Whole IgG, backbone hIgG1; also called HPAC 14-2
B3: HAPC-14-5 (antibody, V domains shown)
VH: B1 VH with S55K
VL: B1 VL with Q93V
notes: Whole IgG, backbone hIgG1; also called HPAC 14-5
B4: HAPC-14-7 (antibody, V domains shown)
VH: B1 VH
VL: B1 VL with W57R, G59E
notes: Whole IgG, backbone hIgG1; also called HPAC 14-7
B5: HAPC-14-4 (antibody, V domains shown)
VH: B1 VH
VL: B1 VL with W57R, Q93V
notes: Whole IgG, backbone hIgG1; also called HPAC 14-4
B6: HAPC-14-8 (antibody, V domains shown)
VH: B1 VH with S55K, Y104T
VL: B1 VL with W57R, Q93V
notes: Whole IgG, backbone hIgG1; also called HPAC 14-8
B7: HAPC-14-9 (antibody, V domains shown)
VH: B1 VH with S55K, Y104T
VL: B1 VL with W57R
notes: Whole IgG, backbone hIgG1; also called HPAC 14-9
B8: HAPC-14-10 (antibody, V domains shown)
VH: B1 VH with F31N, S55K, Y104T
VL: B1 VL with W57R, Q93V
notes: Whole IgG, backbone hIgG1; also called HPAC 14-10

Positions count from the first letter of the chain named.

The values below come from patent US20250277057A1 (OKLAHOMA MEDICAL RESEARCH FOUNDATION, published 2025).

One assay concerns the target T1, human activated protein C (human, UniProt P04070 43-197; P04070 212-461). As to the kind of experiment: cell-based or functional assay.
Turning to B1, the “Mean clotting time (s), FIX-deficient plasma, APC-antibody concentration 0.5 ug/ml” value came out at 219 s; the “Mean clotting time (s), FIX-deficient plasma, APC-antibody concentration 1 ug/ml” value is 195 s; the “Mean clotting time (s), FIX-deficient plasma, APC-antibody concentration 5 ug/ml” value is 171 s; the “Mean clotting time (s), FVIII-deficient plasma, APC-antibody concentration 0.5 ug/ml” value turned out to be 327 s. Further, the “Mean clotting time (s), FVIII-deficient plasma, APC-antibody concentration 1 ug/ml” value was 222 s and the “Mean clotting time (s), FVIII-deficient plasma, APC-antibody concentration 5 ug/ml” value stood at 166 s.
Turning to B2, the “Mean clotting time (s), FIX-deficient plasma, APC-antibody concentration 0.5 ug/ml” value worked out at 233 s; the “Mean clotting time (s), FIX-deficient plasma, APC-antibody concentration 1 ug/ml” value came to 211 s; the “Mean clotting time (s), FIX-deficient plasma, APC-antibody concentration 5 ug/ml” value stood at 143 s; the “Mean clotting time (s), FVIII-deficient plasma, APC-antibody concentration 0.5 ug/ml” value stood at 358 s. Further, the “Mean clotting time (s), FVIII-deficient plasma, APC-antibody concentration 1 ug/ml” value turned out to be 196 s and the “Mean clotting time (s), FVIII-deficient plasma, APC-antibody concentration 5 ug/ml” value stood at 159 s.
As for B3, the “Mean clotting time (s), FIX-deficient plasma, APC-antibody concentration 0.5 ug/ml” value stood at 197 s; the “Mean clotting time (s), FIX-deficient plasma, APC-antibody concentration 1 ug/ml” value was determined as 188 s; the “Mean clotting time (s), FIX-deficient plasma, APC-antibody concentration 5 ug/ml” value came out at 166 s; the “Mean clotting time (s), FVIII-deficient plasma, APC-antibody concentration 0.5 ug/ml” value is 224 s. In addition, the “Mean clotting time (s), FVIII-deficient plasma, APC-antibody concentration 1 ug/ml” value was determined as 200 s and the “Mean clotting time (s), FVIII-deficient plasma, APC-antibody concentration 5 ug/ml” value turned out to be 171 s.
As to B4, the “Mean clotting time (s), FIX-deficient plasma, APC-antibody concentration 0.5 ug/ml” value stood at 241 s; the “Mean clotting time (s), FIX-deficient plasma, APC-antibody concentration 1 ug/ml” value worked out at 145 s; the “Mean clotting time (s), FIX-deficient plasma, APC-antibody concentration 5 ug/ml” value was 146 s; the “Mean clotting time (s), FVIII-deficient plasma, APC-antibody concentration 0.5 ug/ml” value is 297 s. For the same molecule, the “Mean clotting time (s), FVIII-deficient plasma, APC-antibody concentration 1 ug/ml” value came out at 198 s and the “Mean clotting time (s), FVIII-deficient plasma, APC-antibody concentration 5 ug/ml” value turned out to be 176 s.
For the molecule B5, the “Mean clotting time (s), FIX-deficient plasma, APC-antibody concentration 0.5 ug/ml” value is 220 s; the “Mean clotting time (s), FIX-deficient plasma, APC-antibody concentration 1 ug/ml” value was determined as 194 s; the “Mean clotting time (s), FIX-deficient plasma, APC-antibody concentration 5 ug/ml” value came out at 176 s; the “Mean clotting time (s), FVIII-deficient plasma, APC-antibody concentration 0.5 ug/ml” value came out at 221 s. Besides, the “Mean clotting time (s), FVIII-deficient plasma, APC-antibody concentration 1 ug/ml” value was 184 s and the “Mean clotting time (s), FVIII-deficient plasma, APC-antibody concentration 5 ug/ml” value turned out to be 158 s.
Consider B6, for which the “Mean clotting time (s), FIX-deficient plasma, APC-antibody concentration 0.05 ug/ml” value stood at 732 s; the “Mean clotting time (s), FIX-deficient plasma, APC-antibody concentration 0.1 ug/ml” value is 392 s; the “Mean clotting time (s), FIX-deficient plasma, APC-antibody concentration 0.5 ug/ml” value is 276 s; the “Mean clotting time (s), FVIII-deficient plasma, APC-antibody concentration 0.05 ug/ml” value amounted to 316 s. Further, the “Mean clotting time (s), FVIII-deficient plasma, APC-antibody concentration 0.1 ug/ml” value amounted to 252 s and the “Mean clotting time (s), FVIII-deficient plasma, APC-antibody concentration 0.5 ug/ml” value is 190 s.
For the molecule B7, the “Mean clotting time (s), FIX-deficient plasma, APC-antibody concentration 0.05 ug/ml” value amounted to 670 s; the “Mean clotting time (s), FIX-deficient plasma, APC-antibody concentration 0.1 ug/ml” value turned out to be 611 s; the “Mean clotting time (s), FIX-deficient plasma, APC-antibody concentration 0.5 ug/ml” value is 170 s; the “Mean clotting time (s), FVIII-deficient plasma, APC-antibody concentration 0.05 ug/ml” value amounted to 262 s. In addition, the “Mean clotting time (s), FVIII-deficient plasma, APC-antibody concentration 0.1 ug/ml” value came to 217 s and the “Mean clotting time (s), FVIII-deficient plasma, APC-antibody concentration 0.5 ug/ml” value was determined as 182 s.
B8: the “Mean clotting time (s), FIX-deficient plasma, APC-antibody concentration 0.05 ug/ml” value is 733 s; the “Mean clotting time (s), FIX-deficient plasma, APC-antibody concentration 0.1 ug/ml” value was 596 s; the “Mean clotting time (s), FIX-deficient plasma, APC-antibody concentration 0.5 ug/ml” value was found to be 331 s; the “Mean clotting time (s), FIX-deficient plasma, APC-antibody concentration 1 ug/ml” value was found to be 158 s. Further, the “Mean clotting time (s), FVIII-deficient plasma, APC-antibody concentration 0.05 ug/ml” value is 415 s; the “Mean clotting time (s), FVIII-deficient plasma, APC-antibody concentration 0.1 ug/ml” value was 309 s; the “Mean clotting time (s), FVIII-deficient plasma, APC-antibody concentration 0.5 ug/ml” value came out at 254 s.

The target in another assay is T2, human protein C (human, UniProt P04070 43-461).
T2 construct: Zymogen form, coated on ELISA plates; also called hPC; PC
As to the kind of experiment: ELISA on plate-coated HPC, OD450. How it is done: (§1) The binding abilities of the anti-aPC monoclonal antibodies to haPC/hPC were assayed by Elisa. […] 1. ELISA plates were coated with haPC/hPC (1 ug/mL in PBS), 100 μL/well, at 4° C. overnight. […] 2. The plates were washed 3 times with PBST (0.1% Tween 20), 200 μL/well. […] 3. The plates were blocked with 2% BSA (PBS solution), 200 μL/well, at room temperature for 1 hour. […] 4. The plates were washed 3 times with PBST (0.1% Tween 20), 200 μL/well. […] 5. The plates were incubated with anti-aPC monoclonal antibody as primary antibody (diluted from 10 μg/mL in 2% BSA), 100 μL/well, at room temperature for 1 hour. […] 6. The plates were washed 3 times with PBST (0.1% Tween 20), 200 μL/well. [0200] 7. The plates were incubated with anti-hIgG-Fc antibody-HRP (diluted 5000-fold in 2% BSA buffer) at room temperature for 1 hour. [0201] 8. The plates were washed 6 times with PBST (0.1% Tween 20), 200 μL/well. [0202] 9. The plates were incubated with a TMB substrate (prepared from solutions A and B at 1:1 (v/v)), 100 μL/well, away from light for 10 minutes. […] 10. The reaction was quenched with HCl (1 M), 100 μL/well, and OD450 was read.
As for B1, the binding result is “no binding (tested: 10^2 nM)”.
With B2, the binding result is “no binding (tested: 10^2 nM)”.
Take B3: the binding result is listed as “no binding (tested: 10^2 nM)”.
As for B4, the binding result was “no binding (tested: 10^2 nM)”.
For the molecule B5, the binding result is “no binding (tested: 10^2 nM)”.
Turning to B7, the binding result is listed as “no binding (tested: 10^2 nM)”.
As to B8, the binding result is “no binding (tested: 10^2 nM)”.

Another assay concerns the target T2, human protein C. As to the kind of experiment: ELISA, plate coated with hPC 1 ug/mL, anti-hIgG-Fc-HRP. The procedure:
as §1
B1 registered a Span of 0.023.
For B2, the Span came out at 0.0104.
In turn, B3 had a Span of approximately 0.0475.
B4 yielded a Span of approximately 0.00661.
Molecule B5 registered a Span of 0.157.
The same measure, in the same setting: for B6 the value was -0.00465; for B7, 0.012; for B8, approximately 0.00145.

A further assay addresses T1, human activated protein C. Description: ELISA, plate coated with haPC 1 ug/mL, anti-hIgG-Fc-HRP. How it is done:
as §1
B1 gave an EC50 of 0.114 nM and a Span of 2.11.
Molecule B2 came in with an EC50 of 0.111 nM and a Span of 1.77.
Molecule B3 had a half-maximal effective concentration (EC50) of 0.0924 nM and a Span of 1.63.
With B4, the EC50 was 0.13 nM and the Span was 1.58.
Molecule B5 showed an EC50 of 0.0605 nM and a Span of 1.52.
B6 showed an EC50 of 0.138 nM and a Span of 1.05.
For B7, in that order: 0.0761 nM and 1.07.
The molecule B8 registered a half-maximal effective concentration (EC50) of 0.28 nM and a Span of 0.745.

A further assay has as its target T1, human activated protein C. As to the kind of experiment: Octet BLI, antibody on Protein A sensor, huAPC 3.13-50 nM, 1:1 model, 25 C, pH 7.4. The procedure:
Assay method: Octet analysis was carried out at 25° C. using a Protein A Octet biosensor in 1× Kinetics buffer. During the kinetics assay, the baseline step assay was run in 1× Kinetics buffer for 120 seconds, and then run for 240 seconds after the antibody was loaded to the biosensor. Next, the baseline 2 step assay was run in 1× Kinetics buffer for 120 seconds. […] The 1× Kinetics buffer was used as a blank control to show the natural dissociation of the antibody in the buffer. 10 mM glycine at pH 1.5 was used for the regeneration step. Octet data analysis software was used to calculate binding kinetics, and a 1:1 binding model was used for curve fitting.
The affinities of the mutant antibodies were assayed at pH 7.4.
The molecule B1 returned a Kd of 3.83 nM, a koff of 0.00117 s⁻¹ and a kon of 306000 M⁻¹ s⁻¹.
For the molecule B2, binding was put at a Kd of 3.78 nM, the koff was found to be 0.00116 s⁻¹ and the kon was 307000 M⁻¹ s⁻¹.
In the case of B3, the Kd stood at 2.83 nM, the koff worked out at 0.000911 s⁻¹ and the kon worked out at 322000 M⁻¹ s⁻¹.
On the same counts, the results for B4 are 7.72 nM, 0.00197 s⁻¹ and 256000 M⁻¹ s⁻¹.
B5 gave a Kd of 4.06 nM, a koff of 0.00126 s⁻¹ and a kon of 310000 M⁻¹ s⁻¹.
On the same counts, the results for B6 are 10.5 nM, 0.00262 s⁻¹ and 250000 M⁻¹ s⁻¹.
Take B7: binding was characterised by a dissociation constant (Kd) of 9.69 nM, the koff was 0.00238 s⁻¹ and the kon turned out to be 245000 M⁻¹ s⁻¹.
In turn, B8 yielded a Kd of 19 nM, a koff of 0.00428 s⁻¹ and a kon of 225000 M⁻¹ s⁻¹.
